Among the data in publication PMC4338043 are stoichiometry N values, retold here.

Read-outs that look alike come from different tables or passages of the source.

Usually stoichiometry N stands for a count of units in the complex or per binding partner.

What all share (assay): AUC
Experiment [1] concerns the target Bacillus anthracis inosine-5'-monophosphate dehydrogenase (Bacillus thuringiensis serovar monterrey BGSC 4AJ1 (sequence 100% identical to B. anthracis IMPDH)).
The target is the same in experiment [2]. This is another data set of the same source.
In experiment [3] the target is Klebsiella pneumoniae inosine-5'-monophosphate dehydrogenase (Klebsiella pneumoniae strain 52145).
Experiment [4] shares this target. This is another data set of the same source.

Take “Bacillus anthracis inosine-5'-monophosphate dehydrogenase (from UniProt A0A0K0Q667 1-487) (enzyme)”: the stoichiometry N amounted to 4 in experiment [1] and 8 in experiment [2].
In the case of “Klebsiella pneumoniae inosine-5'-monophosphate dehydrogenase (enzyme)”, the values for the stoichiometry N in experiment [3] and in experiment [4] were 4 and 8, respectively.
